Laboratory results published in PMC4204884.
Where two headings read alike, the source gives them in different places.

B1: Bi-U2 ssRNA (ssRNA)
RNA: AAGUGUAG
B2: Bi-U6 ssRNA (ssRNA)
RNA: CAGAGAA
B3: Bi-MS2 dsRNA (structured_RNA)
RNA: CGUACACCAUCAGGGUACG

Tests used:
Cdc5-R1-R2-D3ΔL [1] = molecular target: T1, Cdc5-R1-R2-D3ΔL (Schizosaccharomyces pombe, UniProt P39964 5-208, del111-146); assay: pull-down
Cdc5-R1-R2-D3ΔL [2] = molecular target: T1, Cdc5-R1-R2-D3ΔL; assay: pull-down; remark: listed apart in the source

Binder	binding result (Cdc5-R1-R2-D3ΔL [1])	binding result (Cdc5-R1-R2-D3ΔL [2])
B1	binds	
B2	binds	
B3		binds
